How the values were obtained:
[1] = biological target: activated coagulation factor XII (FXIIa); assay: chromogenic enzyme inhibition assay; 1 nM FXIIa, 500 μM S2302, 37 °C, 110 mM Tris-HCl pH 8.0, 250 mM NaCl, 1% BSA; residual activity in triplicate at at least six inhibitor concentrations; Ki from a linear fit of 1/v against inhibitor concentration
[2] = biological target: bovine pancreatic trypsin (bovine); assay: chromogenic enzyme inhibition assay; 1 nM trypsin, 500 μM S2765, 37 °C, 110 mM Tris-HCl pH 8.0, 250 mM NaCl, 1% BSA; residual activity in triplicate at at least six inhibitor concentrations; Ki from a linear fit of 1/v against inhibitor concentration
bovine pancreatic trypsin (bovine), sequence (P00760 24-246): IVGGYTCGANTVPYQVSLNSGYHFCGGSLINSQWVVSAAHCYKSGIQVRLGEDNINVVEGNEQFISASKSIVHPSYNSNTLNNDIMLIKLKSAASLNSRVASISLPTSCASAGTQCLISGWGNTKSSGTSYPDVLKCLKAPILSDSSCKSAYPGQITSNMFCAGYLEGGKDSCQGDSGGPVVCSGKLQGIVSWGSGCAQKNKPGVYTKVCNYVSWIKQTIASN

Row | Binder | Ki [1] | Ki [2]
1 | corn Hageman factor inhibitor (CHFI), control protein from Zea mays seeds (natural protein) SAGTSCVPGWAIPHNPLPSCRWYVTSRTCGIGPRLPWPELKRRCCRELADIPAYCRCTALSILMDGAIPPGPDAQLEGRLEDLPGCPREVQRGFAATLVTEAECNLATIS | 1 nM | 2.1 nM
2 | CHFI-12345, recombinant full-size CHFI without any truncations (natural protein) SAGTSCVPGWAIPHNPLPSCRWYVTSRTCGIGPRLPWPELKRRCCRELADIPAYCRCTALSILMDGAIPPGPDAQLEGRLEDLPGCPREVQRGFAATLVTEAECNLATIS | 1.1 nM | 1.3 nM
3 | CHFI-1245, full-size CHFI with Cys29 substituted by Asp (natural protein) SAGTSCVPGWAIPHNPLPSCRWYVTSRTDGIGPRLPWPELKRRCCRELADIPAYCRCTALSILMDGAIPPGPDAQLEGRLEDLPGCPREVQRGFAATLVTEAECNLATIS | 50 nM | 250 nM
4 | CHFI-2345 (domain or fragment) IPHNPLPSCRWYVTSRTCGIGPRLPWPELKRRCCRELADIPAYDRCTALSILMDGAIPPGPDAQLEGRLEDLPGCPREVQRGFAATLVTEAECNLATISGVAECPWILGGGTMPSK | 1 nM | 2.9 nM
